The chains are these.
T1: EsCas13d, nuclease-dead (Eubacterium siraeum, UniProt B0MS50, R295A;H300A;R849A;H854A)
T1 sequence: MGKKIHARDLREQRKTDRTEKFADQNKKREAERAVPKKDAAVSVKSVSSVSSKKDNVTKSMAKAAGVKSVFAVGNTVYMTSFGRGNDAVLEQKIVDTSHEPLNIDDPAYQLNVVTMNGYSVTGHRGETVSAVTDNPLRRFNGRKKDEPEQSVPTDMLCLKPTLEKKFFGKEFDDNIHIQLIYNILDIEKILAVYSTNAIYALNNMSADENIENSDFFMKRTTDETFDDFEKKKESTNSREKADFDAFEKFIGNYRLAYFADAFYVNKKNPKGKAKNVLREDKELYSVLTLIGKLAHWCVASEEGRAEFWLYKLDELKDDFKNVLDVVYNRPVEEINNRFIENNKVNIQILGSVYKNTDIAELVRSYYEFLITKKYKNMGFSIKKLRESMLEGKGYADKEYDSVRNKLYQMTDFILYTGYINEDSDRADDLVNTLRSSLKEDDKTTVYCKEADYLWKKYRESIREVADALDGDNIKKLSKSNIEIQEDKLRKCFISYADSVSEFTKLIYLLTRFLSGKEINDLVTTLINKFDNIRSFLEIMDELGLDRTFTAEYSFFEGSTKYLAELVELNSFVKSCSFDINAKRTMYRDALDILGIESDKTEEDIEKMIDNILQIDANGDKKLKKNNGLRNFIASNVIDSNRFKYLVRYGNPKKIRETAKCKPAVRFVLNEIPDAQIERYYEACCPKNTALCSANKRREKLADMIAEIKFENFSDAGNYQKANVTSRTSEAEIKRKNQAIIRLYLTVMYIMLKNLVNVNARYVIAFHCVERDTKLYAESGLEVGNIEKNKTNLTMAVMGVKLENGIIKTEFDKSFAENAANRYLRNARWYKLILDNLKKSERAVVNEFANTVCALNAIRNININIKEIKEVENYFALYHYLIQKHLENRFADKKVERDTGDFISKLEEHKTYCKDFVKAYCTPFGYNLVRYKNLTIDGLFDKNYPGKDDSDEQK

B1: target 2 MT 5'PFS AUU 3'PFS ACA (mixed)
RNA 1: CACCCGUGCAAAAUUGCAGGGGUCUAAAACCUUCUCCAAAUUGUUUCAUCCU
RNA 2: GGGAAUGGAUCCACAUCUACGAAUUCAUUAGGAUGAAACAAUUUGGAGAAGACAAGAUCGGAAGAGCACACGU
B2: target 2 MT 5'PFS UGA 3'PFS CAG (mixed)
RNA 1: CACCCGUGCAAAAUUGCAGGGGUCUAAAACCUUCUCCAAAUUGUUUCAUCCU
RNA 2: GGGAAUGGAUCCACAUCUACGAAUUCUGAAGGAUGAAACAAUUUGGAGAAGCAGAGAUCGGAAGAGCACACGU
B3: target 2 MT 5'PFS GAG 3'PFS AAG (mixed)
RNA 1: CACCCGUGCAAAAUUGCAGGGGUCUAAAACCUUCUCCAAAUUGUUUCAUCCU
RNA 2: GGGAAUGGAUCCACAUCUACGAAUUCGAGAGGAUGAAACAAUUUGGAGAAGAAGAGAUCGGAAGAGCACACGU
B4: target 2 MT 5'PFS GAC 3'PFS CAA (mixed)
RNA 1: CACCCGUGCAAAAUUGCAGGGGUCUAAAACCUUCUCCAAAUUGUUUCAUCCU
RNA 2: GGGAAUGGAUCCACAUCUACGAAUUCGACAGGAUGAAACAAUUUGGAGAAGCAAAGAUCGGAAGAGCACACGU
B5: target 2 MT 5'PFS AUU 3'PFS ACG (mixed)
RNA 1: CACCCGUGCAAAAUUGCAGGGGUCUAAAACCUUCUCCAAAUUGUUUCAUCCU
RNA 2: GGGAAUGGAUCCACAUCUACGAAUUCAUUAGGAUGAAACAAUUUGGAGAAGACGAGAUCGGAAGAGCACACGU
B6: target 2 MT 5'PFS GAG 3'PFS AAA (mixed)
RNA 1: CACCCGUGCAAAAUUGCAGGGGUCUAAAACCUUCUCCAAAUUGUUUCAUCCU
RNA 2: GGGAAUGGAUCCACAUCUACGAAUUCGAGAGGAUGAAACAAUUUGGAGAAGAAAAGAUCGGAAGAGCACACGU
B7: target 2 MT 5'PFS GAC 3'PFS CAU (mixed)
RNA 1: CACCCGUGCAAAAUUGCAGGGGUCUAAAACCUUCUCCAAAUUGUUUCAUCCU
RNA 2: GGGAAUGGAUCCACAUCUACGAAUUCGACAGGAUGAAACAAUUUGGAGAAGCAUAGAUCGGAAGAGCACACGU
B8: target 2 MT 5'PFS GAC 3'PFS CAG (mixed)
RNA 1: CACCCGUGCAAAAUUGCAGGGGUCUAAAACCUUCUCCAAAUUGUUUCAUCCU
RNA 2: GGGAAUGGAUCCACAUCUACGAAUUCGACAGGAUGAAACAAUUUGGAGAAGCAGAGAUCGGAAGAGCACACGU
B9: target 2 MT 5'PFS GAC 3'PFS CAC (mixed)
RNA 1: CACCCGUGCAAAAUUGCAGGGGUCUAAAACCUUCUCCAAAUUGUUUCAUCCU
RNA 2: GGGAAUGGAUCCACAUCUACGAAUUCGACAGGAUGAAACAAUUUGGAGAAGCACAGAUCGGAAGAGCACACGU
B10: target 2 MT 5'PFS GAG 3'PFS AAC (mixed)
RNA 1: CACCCGUGCAAAAUUGCAGGGGUCUAAAACCUUCUCCAAAUUGUUUCAUCCU
RNA 2: GGGAAUGGAUCCACAUCUACGAAUUCGAGAGGAUGAAACAAUUUGGAGAAGAACAGAUCGGAAGAGCACACGU
B11: target 2 MT 5'PFS AUU 3'PFS ACU (mixed)
RNA 1: CACCCGUGCAAAAUUGCAGGGGUCUAAAACCUUCUCCAAAUUGUUUCAUCCU
RNA 2: GGGAAUGGAUCCACAUCUACGAAUUCAUUAGGAUGAAACAAUUUGGAGAAGACUAGAUCGGAAGAGCACACGU
B12: target 2 MT 5'PFS GAG 3'PFS AAU (mixed)
RNA 1: CACCCGUGCAAAAUUGCAGGGGUCUAAAACCUUCUCCAAAUUGUUUCAUCCU
RNA 2: GGGAAUGGAUCCACAUCUACGAAUUCGAGAGGAUGAAACAAUUUGGAGAAGAAUAGAUCGGAAGAGCACACGU
B13: target 1 insU 3' of 20,insC 3' of 19 (mixed)
RNA 1: CACCCGUGCAAAAAUGCAGGGGUCUAAAACUGAGCGGAUAACCUCUCUAUGG
RNA 2: GGGAAUGGAUCCACAUCUACGAAUUCGUACCAUUCAGAGAGGUUAUCCGCUCACCGAGAUCGGAAGAGCACACGU

The values that follow come from PMC10786891, “Massively parallel profiling of RNA-targeting CRISPR-Cas13d”.

For the series, the target named is T1, EsCas13d, nuclease-dead. The series is described as follows: crRNA (strand 1, pre-loaded); Mg2+; 40 mM Tris-HCl pH 7.5, 150 mM NaCl, 6 mM MgCl2, 1 mM DTT, 0.1% Tween-20, 0.2 mg/ml BSA; 25 C; 10 min per concentration, then washed. Particulars: tags: His6-TwinStrep-SUMO cleaved; N-terminal SNAP kept (SNAP-Surface 488); label: 3' end held by stalled T7 RNA polymerase.
As to B1, the Kd worked out at 9.5 ± 2 nM.

B2: the Kd is 6.6 ± 0.7 nM.

In turn, B3 returned a Kd of 5.6 ± 0.5 nM.

B4 registered an equilibrium dissociation constant (Kd) of 6.2 ± 1.2 nM.

Consider B5, for which the Kd came to 9 ± 1 nM.

Take B6: the Kd was determined as 4.1 ± 0.6 nM.

Molecule B7 displayed a dissociation constant Kd of 7.4 ± 1.2 nM.

B8 returned a dissociation constant Kd of 17 ± 4 nM. This Kd is about 2.3-fold higher than that of the molecule before.

As for B9, the dissociation constant Kd worked out at 12.9 ± 2.4 nM.

As to B10, the affinity, expressed as Kd, was 6.1 ± 1 nM. This Kd lies about 2.1-fold lower than the previous one.

B11 registered a Kd of 10.7 ± 1.3 nM.

In the case of B12, the equilibrium dissociation constant (Kd) came out at 5.6 ± 0.7 nM. Against the preceding molecule, the Kd is about 1.9-fold lower.

Consider B13, for which the Kd was 50 ± 17 nM. Against the preceding molecule, the Kd is about 8.9-fold higher.
